Results on two substances are retold here after article PMC3470943, “Identification of BACE2 as an avid ß-amyloid-degrading protease” (Molecular Neurodegeneration, 2012).

The assay deals with T1, BACE2 (Homo sapiens, UniProt Q9Y5Z0).
T1 construct: purchased R&D Systems
T1 sequence (Q9Y5Z0 63-518): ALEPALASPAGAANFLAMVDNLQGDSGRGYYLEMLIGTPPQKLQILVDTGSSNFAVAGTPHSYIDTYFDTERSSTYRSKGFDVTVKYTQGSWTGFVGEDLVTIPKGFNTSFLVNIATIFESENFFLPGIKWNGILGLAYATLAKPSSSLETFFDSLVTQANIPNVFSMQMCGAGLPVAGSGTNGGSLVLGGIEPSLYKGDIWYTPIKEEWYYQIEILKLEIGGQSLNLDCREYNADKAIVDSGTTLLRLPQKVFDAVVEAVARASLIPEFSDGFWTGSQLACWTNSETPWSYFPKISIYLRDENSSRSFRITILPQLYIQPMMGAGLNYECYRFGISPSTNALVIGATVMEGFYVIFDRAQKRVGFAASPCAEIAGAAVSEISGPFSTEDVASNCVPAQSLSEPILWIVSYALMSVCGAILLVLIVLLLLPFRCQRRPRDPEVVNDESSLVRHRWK
As to the kind of experiment: Cleavage of biotinylated Aβ by BACE2, immunoprecipitation/mass spectrometry (IP/MS). Type of assay: biochemical. The note with it: peptide 300 nM, BACE2 5 nM, within 1 h; 25 mM acetate buffer pH 4.0, 0.1% BSA; product Aβ34; SELDI-TOF MS. The protocol: We next investigated which peptide bond(s) within Aβ are hydrolyzed by BACE2 and BACE1. To that end, we co-incubated N-terminally biotinylated Aβ40 or Aβ42 (300nM) with BACE2 (5 nM) and analyzed the products by immunoprecipitation/mass spectrometry (IP/MS) (see Methods). […] To test whether any additional cleavages can occur, we incubated N-terminally biotinylated Aβ40 (300 nM) with a larger amount of BACE2 (25 nM) for 1 and 24 h. At these higher concentrations and longer incubation times, Aβ19 and Aβ20 were the principal N-terminal fragments remaining at the end of the reaction (Figure 3E-F).
The cleavage sites within Aβ40 and Aβ42 hydrolyzed by BACE2 and BACE1 were determined essentially as described with minor modifications. Briefly, Aβ peptides or biotinylated Aβ peptides were incubated for various lengths of time with recombinant BACE2 enzyme in Assay Buffer (25 mM acetate buffer, pH 4.0, supplemented with 0.1% BSA). The reaction was stopped by addition of protease inhibitor cocktail and pH adjustment. Aβ fragments were immediately precipitated by magnetic beads coated with streptavidin (for biotinylated Aβ) or magnetic beads coated with Ab9 antibody (for unmodified Aβ). […] Digested products were spotted onto a gold chip, dried, and analyzed using a Ciphergen ProteinChip SELDI time-of-flight system (Bio-Rad). […]

Turning to “N-terminally biotinylated Aβ40: Aβ40 biotinylated at the N-terminus, substrate for IP/MS”, the “extent of hydrolysis by BACE2” value was “almost completely hydrolyzed”.
With “N-terminally biotinylated Aβ42: Aβ42 biotinylated at the N-terminus, substrate for IP/MS”, the “extent of hydrolysis by BACE2” value is on record as “almost completely hydrolyzed”.
